Reference: patent US9387267B2, “Iodine-containing radial-shaped macromolecular compounds, preparation method thereof and contrast media compositions for CT comprising the same” (KOREA RESEARCH INSTITUTE OF BIOSCIENCE AND BIOTECHNOLOGY, priority 2010, dated 2016)
Where two headings read alike, the source gives them in different places.

Key:
[1] = assay type: physicochemical
Procedure: (§1) Sample solutions for in vivo injections as CT contrast agents were prepared by dissolving each PAMAM-PEG2000-TIPAA conjugate (Compound 1c, 2c, 3c, or 4c) at 250 mg/mL in the sterilized 20 mM Tris buffer (242 mg tromethamine and 10 mg EDTA dissolved in 100 mL of deionized water (Millipore Milli-Q), pH 7.4). The resulting solution was sonicated briefly to ensure homogeneity and stored at 4° C., if not used immediately. Before the injection to the animal, the contrast agent solutions were removed from the fridge, warmed to room temperature, and agitated by vortex.
The results of the viscosity (30° C.) and osmolality measurements of the CT contrast media solutions of the present invention are summarized in the following Table 1.
In Table 1, the values are presented as the mean±standard deviation. Five independent measurements were made for each compound under the same conditions, and the mean and standard deviation were calculated after excluding the highest and lowest values (i.e., 3 data).

[2] = test system: Human epithelial cervical cancer (HeLa) cell line; assay type: cell-based; settings: HeLa cells
Procedure: Human epithelial cervical cancer (HeLa) cell line was obtained from American Type Culture Collection (ATCC, Manassas, Va.) and maintained at 37° C. under a 5% carbon dioxide (CO2) atmosphere in Dulbecco's modified eagle medium (DMEM, Gibco) supplemented with 10% fetal bovine serum (FBS), 50 U/mL penicillin, and 50 μg/mL streptomycin. Stock solutions of PAMAM-PEG2000-TIPAA conjugate Compounds 1c-4c were prepared by dissolving 10 mg of each vacuum-dried solid sample in 1.0 mL of deionized water (Millipore Milli-Q) to make a 10 mg/mL solution. Each stock solution was sonicated briefly to ensure homogeneity. Serial dilutions were carried out using serum-free DMEM to prepare samples of the following concentrations: 1, 5, 10, 50, 100, and 500 μg/mL. HeLa cells were seeded in a flat bottomed 96-well plate (Corning Costar, Cambridge, Mass.) at a density of 1×10^3 cells per well and incubated for 24 hours at 37° C. under a 5% CO2 atmosphere to allow cell attachment. Cells were treated with 100 μL of each dilution or 100 μL of serum-free DMEM (as a control) per well and incubated at 37° C. under a 5% CO2 atmosphere for 24, 48, or 72 hours. The formulations were replaced with serum-free DMEM containing 5 mg/mL 3-(4,5-dimethylthiazol-2-yl)-2,5-diphenyltetrazolium bromide (MTT) and cells were incubated for additional 4 hours. MTT was removed by aspiration and DMSO (100 μL) was added to each well to dissolve the formazan crystals [Mosmann, T., J. Immunol. Methods 1983, 65, 55-63]. Assays were carried out in quadruplicates.

[3] = Micro-CT 2D X-ray snapshot imaging of contrast media solutions in tubes
Procedure: Prior to the in vivo injection of CT contrast media (250 mg/mL) including Compounds 1c, 2c, 3c, or 4c of Examples 1 to 4 prepared in the Preparation Step, 2D X-ray snapshot images of these solutions and two commercially available CT contrast media each for human or animal application were obtained using micro-CT to compare their relative X-ray absorption in tubes under the same conditions as a preliminary evaluation.
Overall, eight 250 μL-tubes were prepared each containing the following: 250 μL each of four CT contrast media prepared in the Preparation Step, 250 μL of “Fenestra VC”, 250 μL of “Iobrix”, 250 μL of 20 mM Tris buffer solution (pH 7.4, 0.1 mg/mL EDTA included) as a negative control group, and one empty tube as a negative control group. These eight tubes were then arranged side by side in parallel on the imaging bed of a NFR Polaris-G90 in vivo micro-CT scanner (manufacturer: NanoFocusRay), and 2D X-ray snapshot images were taken [imaging parameters: 60 kVp, 60 μA, 500 ms exposure time, field of view (FOV) 80.00×83.71 mm^2, 1.4× magnification].

C57BL/6 mice = experiment: In vivo micro-CT imaging evaluation
Procedure: Specifically, 6 to 8 weeks old healthy male C57BL/6 mice (Orient Bio, Korea) having the weight typically ranging from 15 g to 22 g were used as small animals. Each mouse was not fed water and food starting from approximately 12 hours before the injection of the contrast medium until the completion of CT imaging at 4 hours post-injection. The mice were fed water and food immediately after the completion of CT imaging at 4 hours post-injection. Before the injection of the contrast media, each mouse was anaesthetized in an induction chamber by administering 3% isoflurane in oxygen for about 5 minutes. Subsequently, the mouse was placed onto the imaging bed of a NFR Polaris-G90 in vivo micro-CT scanner (NanoFocusRay, Korea) lying in a prone position, and then the baseline (i.e., pre-contrast) scan was performed as a negative control group while being anesthesized by administering 1.5% isoflurane in oxygen [imaging parameters: 60 kVp, 60 μA, 500 ms exposure time, 360° scan angle, 600 scan number, 512 slices (i.e., image number); FOV: 80.00×83.71 mm^2 for low resolution whole-body imaging (1.4× magnification), 33.94×35.52 mm^2 for mid resolution chest and abdominal imaging (3.3× magnification), and 26.67×27.90 mm^2 for high resolution brain imaging (4.2× magnification)]. Next, the tail vein of the mouse was expanded by immersing the tail in a warm water for about 30 to 60 seconds while maintaining the mouse under anesthesia by administering 1.5% isoflurane in oxygen, and the corresponding amount of each contrast medium (15 mL/kg for the contrast media including the compounds of Examples 1 to 4, 10 mL/kg for “Fenestra VC”, and 2.5 mL/kg for “Iobrix”) was slowly injected into the tail vein of each mouse. Immediately after the injection of the contrast medium, the mouse was placed onto the imaging bed of a micro-CT scanner lying in a prone position, and the CT scan was performed at the corresponding resolution (low, mid, or high) while being anesthesized by administering 1.5% isoflurane in oxygen. […]

[4] = Dissolving the compound in buffer solution for a contrast medium; assay type: physicochemical; settings: concentration appropriate for CT imaging
Procedure: as §1

[5] = 250 mg/mL in 20 mM Tris buffer pH 7.4, mean±standard deviation
[6] = 30° C., 250 mg/mL in 20 mM Tris buffer pH 7.4, mean±standard deviation
[7] = incubated for 72 hours, 500 μg/mL, MTT
[8] = 250 μL in tube, 2D X-ray snapshot, 60 kVp, 60 μA, own media 250 mg/mL

Substance	Osmolality [1, 5] [mOsm/kg]	Viscosity [1, 6] [mPa · s]	cell survival rate [2, 7] [%]	X-ray transmission intensity [3, 8]	amount found in the kidney (C57BL/6 mice; mice, images at 1 hour after injection)	excretion (route and rate) (C57BL/6 mice; mice, tail vein injection, whole-body CT images)	Osmolality ([1]; pH 7.4) [mOsm/kg]	Viscosity ([1]; pH 7.4) [mPa · s]	cell survival rate ([2]; human, 72 h, 500 µg/mL) [%]	X-ray transmission intensity [3]	ease of dissolving in a buffer solution [4]	thickness of contrast medium solution felt during the injection (C57BL/6 mice; during injection)
G1 PAMAM-mPEG2000-TIPAA Conjugate [Example 1]	464.75 ± 3.59	15.32 ± 0.39	88.5	904.5	a considerable amount thereof was found in the kidney within a relatively short period of time	mostly through kidney to bladder						
G2 PAMAM-mPEG2000-TIPAA Conjugate [Example 2]							233.50 ± 9.75	16.47 ± 0.80	88.4	838.0		
G3 PAMAM-mPEG2000-TIPAA Conjugate [Example 3]							225.75 ± 1.26	16.15 ± 0.53	88.4	826.5		
G4 PAMAM-mPEG2000-TIPAA Conjugate [Example 4]	242.00 ± 4.08	16.31 ± 0.61	87.9	827.0							more difficult to dissolve	felt thicker than Compound 2c of Example 2 or Compound 3c of Example 3
